From patent publication US20210172932A1 come the findings set out here.

Test [1] deals with human FcRn (FCGRT and beta2-microglobulin) on MDCK-hFcRn cells, clone 305-6 (human) (UniProt P55899). The test is described as follows: cell-based or functional assay.
The target is the same in test [2]. The test can be described thus: flow cytometry on MDCK-hFcRn cells. (In general: Flow cytometry measures light scatter and fluorescence of single cells or particles in a stream.)
Test [3] has as its target human FcRn (immobilized on nickel-nitrilotriacetic acid-coated biosensors) (human) (UniProt P55899). The test can be described thus: FcRn binding at pH 6.0 (BLI).
Test [4] has the same target. The test can be described thus: BLI (Octet RED), FcRn on Ni-NTA biosensor, pH 6.0. (BLI is a label-free optical method that tracks binding on a fibre tip over time.)
For test [5], the target named is human FcRn (FCGRT and beta2-microglobulin) on MDCK-hFcRn cells, clone 305-6 (human) (UniProt P55899). The test is described as follows: flow cytometry, 100 µg/mL on MDCK-hFcRn cells, physiological pH, geometric MFI (No mAb: 94).
The target in test [6] is human FcRn (immobilized on nickel-nitrilotriacetic acid-coated biosensors) (human) (UniProt P55899). The test can be described thus: BLI, pH 6.0; range of the panel, lower end tied to Nivolumab by Table 1.

The term Kd denotes the concentration at which binding is half-saturated. A low value points to a tighter complex.

Consider Ixekizumab (antibody), for which the Transcytosis in test [1] amounted to 5.1 ng/mL.
The substance 2H7-DG (antibody) yielded a Binding to MDCK-hFcRN, MFI in test [2] of 160 MFI. The Transcytosis (MDCK-hFcRN) in test [1] is 4.3 ng/mL. In test [3], the Kd came to 440 nM.
Substance Pertuzumab (antibody) registered a Kd in test [4] of 570 nM. In test [1], this substance came in with a Transcytosis of 6.8 ng/mL and a Transcytosis in MDCK-hFcRn cells of 6.8 ng/mL.
In the case of Panitumumab (antibody), the Kd in test [4] stood at 780 nM. In addition, the Transcytosis in test [1] came out at 5 ng/mL.
For Avelumab (antibody), in that order: 1300 nM and 7.3 ng/mL.
Taken in the same sequence, the figures for Olaratumab (antibody) were 380 nM and 8.2 ng/mL.
For the substance Basiliximab (antibody), the Kd in test [4] amounted to 540 nM. This substance registered a Binding to MDCK-FcRn cells, MFI in test [5] of 203 MFI. In test [1], this substance came in with a Transcytosis of 14.9 ng/mL and a Transcytosis in MDCK-hFcRn cells of 14.8 ng/mL.
For the substance Alirocumab (antibody), the Transcytosis in test [1] stood at 9.9 ng/mL.
In test [4], Rituximab (antibody) returned a Kd of 460 nM. The same substance came in with a Transcytosis in test [1] of 5.6 ng/mL.
Reslizumab (antibody) came in with a Kd in test [4] of 450 nM. For the same substance, the Binding to MDCK-FcRn cells, MFI in test [5] is 93 MFI. In test [1], this substance yielded a Transcytosis of 3.3 ng/mL and a Transcytosis in MDCK-hFcRn cells of 3.3 ng/mL.
Turning to Emicizumab (bispecific antibody), the Transcytosis in test [1] came to 3.6 ng/mL.
Turning to Atezolizumab (antibody), the Kd in test [4] is 650 nM. The Transcytosis in test [1] is 3 ng/mL.
In test [1], Pembrolizumab (antibody) yielded a Transcytosis of 4.2 ng/mL.
As to Ocrelizumab (antibody), the Kd in test [4] came to 450 nM. In test [5], this substance came in with a Binding to MDCK-FcRn cells, MFI of 101 MFI. Further, the Binding to MDCK-hFcRN, MFI in test [2] was determined as 140 MFI. Also, in test [1], the Transcytosis is 4.8 ng/mL, the Transcytosis (MDCK-hFcRN) was 4.8 ng/mL and the Transcytosis in MDCK-hFcRn cells was found to be 4.8 ng/mL. The substance also registered a Kd in test [3] of 450 nM.
In test [4], Adalimumab (antibody) had a Kd of 1180 nM. This substance also registered a Binding to MDCK-FcRn cells, MFI in test [5] of 183 MFI. Moreover, in test [1], the Transcytosis is 4.7 ng/mL and the Transcytosis in MDCK-hFcRn cells came to 4.7 ng/mL.
In test [4], Palivizumab (antibody) had a Kd of 480 nM. Further, in test [1], the Transcytosis is 3.8 ng/mL.
Taken in the same sequence, the figures for Natalizumab (antibody) were 280 nM and 4.9 ng/mL.
Substance Obinutuzumab (antibody) came in with a Transcytosis in test [1] of 4.5 ng/mL.
On the same count and under the same terms, in the case of Tocilizumab (antibody) it was 5.5 ng/mL; in that of Ofatumumab (antibody), 4.3 ng/mL; in that of Vedolizumab (antibody), 4.1 ng/mL.
Still for that read-out and setting: next, Efalizumab (antibody): 8.3 ng/mL; Golimumab (antibody): 6.8 ng/mL.
With Nivolumab (antibody), the Kd in test [4] and in test [6] was 250 nM each time. Also, the Transcytosis in test [1] came out at 4.3 ng/mL.
Evolocumab (antibody) came in with a Transcytosis in test [1] of 3.6 ng/mL.
2H7-Man5 (antibody) showed a Binding to MDCK-hFcRN, MFI in test [2] of 207 MFI. In addition, the Transcytosis (MDCK-hFcRN) in test [1] is 10.3 ng/mL. Also, the Kd in test [3] came to 230 nM.
Durvalumab (antibody) had a Kd in test [4] of 700 nM. In addition, in test [1], the Transcytosis came out at 6 ng/mL.
